{
  "source": "the supplement of paper PMC6755084",
  "parents": {"B1": {"name": "F1*; the commonest letter at each place (parent)", "chain": "GAGACCGCAACTGAAAAGTTGTTATCACTTGTCGTAAGACACTTTGGATGGGTTGAAGTTCTGCACGTAGAAGCAAAAGGC"}},
  "data": [
    {"variants_of": "B1", "assay": "fraction ligated after 30 min (ligated reads / total reads); higher = more ligase activity", "conditions": "with F1*sub RNA substrate (template-directed ligation), 42 °C", "outline": "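Ligase ribozyme variants were made from oligo-pool templates by PCR amplification, T7 transcription and gel purification. After gel separation, ligated and unligated bands were reverse transcribed with barcoded primers and sequenced on a MiSeq, with core bases filtered at quality ≥20. The fraction ligated for each variant was the number of ligated reads divided by total reads.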", "values": [
      {"variant": "GAGACCGCAACTGAAAAGTTGTTATCACTTGTCGTAAGACACTTTGGATGGGTTCCTGTTCTGCACGTAGAAGCAAAAGGC", "note": "[G55C A56C A57T]", "fraction ligated": 0.0335},
      {"variant": "GAGACCGCAACTGAAAAGTTGTTATCACTTGTCGTAAGACACTTTGGATGGGTTCCGGTTCTGCACGTAGAAGCAAAAGGC", "note": "[G55C A56C A57G]", "fraction ligated": 0.0246},
      {"variant": "GAGACCGCAACTGAAAAGTTGTTATCACTTGTCGTAAGACACTTTGGATGGGTTCCCGTTCTGCACGTAGAAGCAAAAGGC", "note": "[G55C A56C A57C]", "fraction ligated": 0.0245},
      {"variant": "GAGACCGCAACTGAAAAGTTGTTATCACTTGTCGTAAGACACTTTGGATGGGTTGAATTTCTGCACGTAGAAGCAAAAGGC", "note": "[G58T]", "fraction ligated": 0.834},
      {"variant": "GAGACCGCAACTGAAAAGTTGTTATCACTTGTCGTAAGACACTTTGGATGGGTTGAAATTCTGCACGTAGAAGCAAAAGGC", "note": "[G58A]", "fraction ligated": 0.851},
      {"variant": "GAGACCGCAACTGAAAAGTTGTTATCACTTGTCGTAAGACACTTTGGATGGGTTGAACTTCTGCACGTAGAAGCAAAAGGC", "note": "[G58C]", "fraction ligated": 0.767},
      {"variant": "GAGACCGCAACTGAAAAGTTGTTATCACTTGTCGTAAGACACTTTGGATGGGTTGAAGTTCTGCACGTAGAAGCAAAAGGC", "note": "[unchanged]", "fraction ligated": 0.826},
      {"variant": "GAGACCGCAACTGAAAAGTTGTTATCACTTGTCGTAAGACACTTTGGATGGGTTGCCGTTCTGCACGTAGAAGCAAAAGGC", "note": "[A56C A57C]", "fraction ligated": 0.447},
      {"variant": "GAGACCGCAACTGAAAAGTTGTTATCACTTGTCGTAAGACACTTTGGATGGGTTGCGGTTCTGCACGTAGAAGCAAAAGGC", "note": "[A56C A57G]", "fraction ligated": 0.0212},
      {"variant": "GAGACCGCAACTGAAAAGTTGTTATCACTTGTCGTAAGACACTTTGGATGGGTTGCTGTTCTGCACGTAGAAGCAAAAGGC", "note": "[A56C A57T]", "fraction ligated": 0.77},
      {"variant": "GAGACCGCAACTGAAAAGTTGTTATCACTTGTCGTAAGACACTTTGGATGGGTTCGCGTTCTGCACGTAGAAGCAAAAGGC", "note": "[G55C A56G A57C]", "fraction ligated": 0.104},
      {"variant": "GAGACCGCAACTGAAAAGTTGTTATCACTTGTCGTAAGACACTTTGGATGGGTTCGTGTTCTGCACGTAGAAGCAAAAGGC", "note": "[G55C A56G A57T]", "fraction ligated": 0.0232},
      {"variant": "GAGACCGCAACTGAAAAGTTGTTATCACTTGTCGTAAGACACTTTGGATGGGTTCGGGTTCTGCACGTAGAAGCAAAAGGC", "note": "[G55C A56G A57G]", "fraction ligated": 0.0448},
      {"variant": "GAGACCGCAACTGAAAAGTTGTTATCACTTGTCGTAAGACACTTTGGATGGGTTCGAGTTCTGCACGTAGAAGCAAAAGGC", "note": "[G55C A56G]", "fraction ligated": 0.843},
      {"variant": "GAGACCGCAACTGAAAAGTTGTTATCACTTGTCGTAAGACACTTTGGATGGGTTCCAGTTCTGCACGTAGAAGCAAAAGGC", "note": "[G55C A56C]", "fraction ligated": 0.218},
      {"variant": "GAGACCGCAACTGAAAAGTTGTTATCACTTGTCGTAAGACACTTTGGATGGGTTCTAGTTCTGCACGTAGAAGCAAAAGGC", "note": "[G55C A56T]", "fraction ligated": 0.737},
      {"variant": "GAGACCGCAACTGAAAAGTTGTTATCACTTGTCGTAAGACACTTTGGATGGGTTGGTGTTCTGCACGTAGAAGCAAAAGGC", "note": "[A56G A57T]", "fraction ligated": 0.383},
      {"variant": "GAGACCGCAACTGAAAAGTTGTTATCACTTGTCGTAAGACACTTTGGATGGGTTGGCGTTCTGCACGTAGAAGCAAAAGGC", "note": "[A56G A57C]", "fraction ligated": 0.748},
      {"variant": "GAGACCGCAACTGAAAAGTTGTTATCACTTGTCGTAAGACACTTTGGATGGGTTGGGGTTCTGCACGTAGAAGCAAAAGGC", "note": "[A56G A57G]", "fraction ligated": 0.807},
      {"variant": "GAGACCGCAACTGAAAAGTTGTTATCACTTGTCGTAAGACACTTTGGATGGGTTTTTGTTCTGCACGTAGAAGCAAAAGGC", "note": "[G55T A56T A57T]", "fraction ligated": 0.0137},
      {"variant": "GAGACCGCAACTGAAAAGTTGTTATCACTTGTCGTAAGACACTTTGGATGGGTTTTCGTTCTGCACGTAGAAGCAAAAGGC", "note": "[G55T A56T A57C]", "fraction ligated": 0.00568},
      {"variant": "GAGACCGCAACTGAAAAGTTGTTATCACTTGTCGTAAGACACTTTGGATGGGTTTTGGTTCTGCACGTAGAAGCAAAAGGC", "note": "[G55T A56T A57G]", "fraction ligated": 0.0103},
      {"variant": "GAGACCGCAACTGAAAAGTTGTTATCACTTGTCGTAAGACACTTTGGATGGGTTTCCGTTCTGCACGTAGAAGCAAAAGGC", "note": "[G55T A56C A57C]", "fraction ligated": 0.00348},
      {"variant": "GAGACCGCAACTGAAAAGTTGTTATCACTTGTCGTAAGACACTTTGGATGGGTTTCGGTTCTGCACGTAGAAGCAAAAGGC", "note": "[G55T A56C A57G]", "fraction ligated": 0.00397},
      {"variant": "GAGACCGCAACTGAAAAGTTGTTATCACTTGTCGTAAGACACTTTGGATGGGTTTCTGTTCTGCACGTAGAAGCAAAAGGC", "note": "[G55T A56C A57T]", "fraction ligated": 0.0111},
      {"variant": "GAGACCGCAACTGAAAAGTTGTTATCACTTGTCGTAAGACACTTTGGATGGGTTCTCGTTCTGCACGTAGAAGCAAAAGGC", "note": "[G55C A56T A57C]", "fraction ligated": 0.00477},
      {"variant": "GAGACCGCAACTGAAAAGTTGTTATCACTTGTCGTAAGACACTTTGGATGGGTTCTTGTTCTGCACGTAGAAGCAAAAGGC", "note": "[G55C A56T A57T]", "fraction ligated": 0.0179},
      {"variant": "GAGACCGCAACTGAAAAGTTGTTATCACTTGTCGTAAGACACTTTGGATGGGTTCTGGTTCTGCACGTAGAAGCAAAAGGC", "note": "[G55C A56T A57G]", "fraction ligated": 0.0294},
      {"variant": "GAGACCGCAACTGAAAAGTTGTTATCACTTGTCGTAAGACACTTTGGATGGGTTTATGTTCTGCACGTAGAAGCAAAAGGC", "note": "[G55T A57T]", "fraction ligated": 0.794},
      {"variant": "GAGACCGCAACTGAAAAGTTGTTATCACTTGTCGTAAGACACTTTGGATGGGTTTAGGTTCTGCACGTAGAAGCAAAAGGC", "note": "[G55T A57G]", "fraction ligated": 0.791},
      {"variant": "GAGACCGCAACTGAAAAGTTGTTATCACTTGTCGTAAGACACTTTGGATGGGTTTACGTTCTGCACGTAGAAGCAAAAGGC", "note": "[G55T A57C]", "fraction ligated": 0.717},
      {"variant": "GAGACCGCAACTGAAAAGTTGTTATCACTTGTCGTAAGACACTTTGGATGGGTTCACGTTCTGCACGTAGAAGCAAAAGGC", "note": "[G55C A57C]", "fraction ligated": 0.412},
      {"variant": "GAGACCGCAACTGAAAAGTTGTTATCACTTGTCGTAAGACACTTTGGATGGGTTCAGGTTCTGCACGTAGAAGCAAAAGGC", "note": "[G55C A57G]", "fraction ligated": 0.773},
      {"variant": "GAGACCGCAACTGAAAAGTTGTTATCACTTGTCGTAAGACACTTTGGATGGGTTCATGTTCTGCACGTAGAAGCAAAAGGC", "note": "[G55C A57T]", "fraction ligated": 0.632},
      {"variant": "GAGACCGCAACTGAAAAGTTGTTATCACTTGTCGTAAGACACTTTGGATGGGTTTAAGTTCTGCACGTAGAAGCAAAAGGC", "note": "[G55T]", "fraction ligated": 0.83}
    ]}
  ]
}
